From PMC4526809
Several values for one entry are separate records, joined by “and”; a condition that tells them apart may be missing. Equal entries are not always repeated.

Legend:
[1] = target: untagged B. cereus C-SpoIISA (Bacillus cereus ATCC 14579) (UniProt Q81DD1); assay: SEC; purified untagged C-SpoIISA on Superose 6 10/300 GL, 0.4 ml/min, absorbance at 280 nm
[2] = target: His6-tagged B. cereus C-SpoIISA (pETDuetCIISA Bc; pETDuetCIISAB Bc) (Bacillus cereus ATCC 14579) (UniProt Q81DD1); assay: cross-linking; 80 μg Ni-purified His6-C-SpoIISA with glutaraldehyde (5 μl of 2.3% in 100 μl), 30 min, 37°C; 12% SDS-PAGE and Western blot

Substance	stoichiometry N [1]	stoichiometry N [2]
untagged B. cereus C-SpoIISA (from UniProt Q81DD1 1-245) (domain or fragment)	2 and 3	
His6-tagged B. cereus C-SpoIISA (pETDuetCIISA Bc; pETDuetCIISAB Bc) (from UniProt Q81DD1 1-245) (domain or fragment)		2 and 3
